Measured values taken from paper PMC9850916 (Biochemistry, 2022).

Assays:
Assay in all cases: SPR
[1] = target: IgG1-Fc fragment produced by Expi293 cells (human, N-glycosylated)
[2] = target: maltose-binding protein-linked IgG1-Fc fragment ( | human, N-glycosylated Fc)
[3] = target: papain-digested Fc fragment of commercially available rituximab (human, N-glycosylated)

- Kd [1]: 1680 nM
- koff [1]: 0.0802 s⁻¹
- kon [1]: 47800 M⁻¹ s⁻¹
- Kd [2]: 3470 nM
- koff [2]: 0.0635 s⁻¹
- kon [2]: 18400 M⁻¹ s⁻¹
- Kd [3]: 1660 nM
- koff [3]: 0.0721 s⁻¹
- kon [3]: 43900 M⁻¹ s⁻¹
B1: mutant human FcγRIIIa (V158) ectodomain (amino acid residues 1–175) with nine amino acid mutations a (receptor)
chain: RTEDLPKAEVILEPQWNRVLEKDSVTLKCRGAYSPEDNSTQWFHNESLISSQASSYLIDAATVDDSGEYRCQTSLSTLSDPVQLEVHIGWLLLQAPRWEFKEGDPIHLRCHSWKNTALHKVTYLQNGKGRKYFHHNSDFYIPKATLKDSGSYSCRGLVGSKNVSSETVNITITQG
